Residue numbers refer to the chain shown, from its start. Numbers in names are those of the source.
B1: SEQ ID NO: 42: RdpA mutant L82H + V187L + F182W + G103L (protein)
chain: MHAALSPLSQRFERIAVQPLTGVLGAEITGVDLREPLDDSTWNEILDAFHTYQVIYFPGQAITNEQHIAFSRRFGPVDPVPHLKSIEGYPEVQMIRREANESLRVIGDDWHTDSTFLDAPPAAVVMRAIDVPEHGGDTGFLSMYTAWETLSPTMQATIEGLNVVHSATRVFGSLYQAQNRRWSNTSLKVMDVDAGDRETVHPLVVTHPGSGRKGLYVNQVYCQRIEGMTDAESKPLLQFLYEHATRFDFTCRVRWKKDQVLVWDNLCTMHRAVPDYAGKFRYLTRTTVGGVRPAR
B2: SEQ ID NO: 46: RdpA mutant L82H + V187L + F182W + R104G + T112S (protein)
chain: B1 chain with L103G, R104G, T112S

Assays:
[1] = Conversion rate of substrate compound A by E. coli expressing each engineered protein (HPLC, oxygenase activity); format: biochemical; settings: Reaction condition 1: bacteria cultured overnight, substrate compound A and IPTG added to react overnight
Arabidopsis thaliana [2] = assay: T2 transgenic Arabidopsis thaliana plants foliage-sprayed with compound B; format: in vivo; settings: foliage-sprayed with 40 g/mu compound B, 12 days
Source text: In addition, compound B was sprayed to test T2 generation Arabidopsis thaliana plants, that were produced by some of the constructs, comprising unique events screened by T1 generation, wherein, the test results of the wild-type Arabidopsis thaliana control plants transformed with RdpA gene and Arabidopsis thaliana plants comprising the protein-coding gene of SEQ ID NO: 42 after being foliage-sprayed with 40 g/mu compound B for 12 days are shown in FIG. 4.

[3] = Enzymatic kinetic measurements of purified proteins with compound A as substrate; format: biochemical; settings: purified protein, compound A 0-1000 μM as substrate
Procedure: Based on the results of HPLC, representative engineered proteins were selected for protein purification. Further protein characterization, such as Km, Vmax and Kcat, was performed on the 8 engineered proteins from Table 2. Conventional Ni column affinity chromatography was used for protein purification and protein extract purity was assessed by SDS-PAGE analysis. After determining protein concentration by BCA method, enzyme activity was determined.

soybean = assay: Transgenic soybeans sprayed with compound C; format: in vivo; settings: for resistance compared with the wild-type soybean: 10 g compound C sprayed
Procedure: Engineered proteins were selected for soybean transformation and plant analysis. DNA constructs were transformed into soybeans using Agrobacterium tumifaciens and standard methods known in the art.
The transformed TO transgenic plantlets grew in the greenhouse. TO generation transgenic plantlets were tested by spraying 10 g compound C. […] T1 generation soybean plant seeds produced by transformation of all constructs were collected, and T1 generation seedlings were tested by spraying 10 g compound C.

rice (Jinjing 818) [4] = assay: Transgenic rice seedlings, compound B added to medium at rooting phase; format: in vivo; settings: at least 1 μM compound B in medium (0.5 and 1 μM for SEQ ID NO: 42), 17-26 days
Procedure: Plant transformation vectors were constructed, each comprising a recombinant DNA molecule encoding an engineered protein (SEQ ID NO: 42/38/82/86/102/106/126/138/142) with the protein-coding sequence optimized for monocot expression, and rice (Jinjing 818) calli were transformed with these vectors using Agrobacterium tumifaciens and standard methods known in the art. Different concentrations of hormone herbicide compound B were added at the rooting phase of the rice seedlings to test hormone resistance, wherein, the test results of control Jinjing 818 plants and transgenic Jinjing 818 plants comprising the protein-coding gene of SEQ ID NO: 42 after adding 0.5 μM and 1 μM compound B to medium for 19 days are shown in FIG. 1. The test results of control Jinjing 818 plants and transgenic Jinjing 818 plants comprising the protein-coding genes of SEQ ID NO: 38/82/86/102/106/126/138/142 after adding 1 μM compound B to medium are shown in FIG. 5-11.

rice (Jinjing 818) [5] = assay: Transgenic rice T0 plantlets in greenhouse sprayed with compound B; format: in vivo
Procedure: Then, the obtained regenerated TO generation transgenic plantlets grew in the greenhouse, and were sprayed with compound B at the growth stage when approximately two leaves unfolded and the third one just appearing. Resistance levels of plants were recorded and evaluated after spraying treatment, wherein, the test results of control Jinjing 818 plants and transgenic Jinjing 818 plants comprising the protein-coding gene of SEQ ID NO: 42 after applying 20 g, 40 g, 60 g, 80 g, 100 g, 120 g/mu (1 mu=1/15 ha) compound B for corresponding days (DAT) are shown in FIG. 2.

Arabidopsis thaliana [6] = assay: T2 transgenic Arabidopsis thaliana seeds screened on compound A medium; format: in vivo; settings: 0.15 μM compound A in medium, 11-24 days
Source text: Engineered proteins were selected for Arabidopsis thaliana transformation and plant analysis. DNA constructs were transformed into Arabidopsis thaliana using Agrobacterium tumifaciens and standard methods known in the art.
The transformed TO transgenic plantlets grew in the greenhouse. T1 generation Arabidopsis thaliana plant seeds produced by transformation of all constructs were collected after approximately 60 days of growth. Transgenic T1 generation Arabidopsis thaliana plants were screened by adding HYG to medium for T1 generation. T1 plants were selfed to produce seeds of T2 generation Arabidopsis thaliana plants. Wherein, compound A was added to medium to screen and test T2 generation Arabidopsis thaliana plant seeds, that were produced by all constructs, comprising unique events screened by T1 generation.

maize = assay: T0 transgenic maize plantlets sprayed with 30% glyphosate compound C (25+5) ME; format: in vivo
Procedure: Engineered proteins were selected for maize transformation and plant analysis. DNA constructs were transformed into maizes using Agrobacterium tumifaciens and standard methods known in the art.
The transformed TO transgenic plantlets grew in the greenhouse. TO generation transgenic plantlets were tested by spraying with 150 g, 250 g, 400 g, 600 g, 800 g of 30% glyphosate compound C (25+5) ME.

rice (Jinjing 818) [7] = assay: Transgenic rice T0 plantlets in greenhouse sprayed with quizalofop-P-ethyl; format: in vivo; settings: T0 plantlets foliage-sprayed with 5 g, 10 g/mu quizalofop-P-ethyl, 20 DAT
Procedure: The obtained regenerated TO generation transgenic plantlets grew in the greenhouse, and were sprayed with compound quizalofop-P-ethyl at the growth stage when approximately two leaves unfolded and the third one just appearing. Resistance levels of plants were recorded and evaluated after spraying treatment, wherein, the test results of control Jinjing 818 plants and transgenic Jinjing 818 plants comprising the protein-coding gene of SEQ ID NO: 46 after applying 0 g, 5 g, 10 g/mu compound quizalofop-P-ethyl for 20 DAT are shown in FIG. 12.

Molecule | Conversion rate [1] | drug resistance compared with wild-type plants transformed with RdpA gene (Arabidopsis thaliana [2]) | Kcat [3] | Km [3] | Vmax [3] | drug resistance compared with the wild-type soybeans (soybean; T1 generation plantlets, 10 g, 20 g, 40 g, 80 g compound C sprayed, at least 40 g) | drug resistance (tolerance to compound B) compared with wild-type plants (rice (Jinjing 818) [4]) | drug resistance (tolerance to compound B) compared with wild-type plants (rice (Jinjing 818) [5]; T0 plantlets foliage-sprayed with 20-120 g/mu compound B, tolerance at at least 120 g/mu) | tolerance compared with the wild types (summary) (rice (Jinjing 818) [5]; medicated medium test and greenhouse spraying test for T0 generation, compound B) | drug resistance compared with wild-type Arabidopsis thaliana (longer roots and larger leaves) (Arabidopsis thaliana [6]) | drug resistance compared with the wild-type maize (maize; 600 g 30% glyphosate compound C (25+5) ME) | phytotoxicity reaction of transgenic plantlets (maize; 600 g of 30% glyphosate compound C (25+5) ME) | phytotoxicity reaction of transgenic plantlets (maize; 800 g of 30% glyphosate compound C (25+5) ME) | phytotoxicity reaction of transgenic plantlets (maize; concentration below 600 g of 30% glyphosate compound C (25+5) ME) | drug resistance (tolerance to quizalofop-P-ethyl) compared with wild-type plants (rice (Jinjing 818) [7]) | resistance compared with the wild-type soybean (soybean; T0 generation plantlets) | resistance compared with the wild-type soybean (soybean; T1 generation seedlings)
B1 | 96.6% | exhibited better drug resistance | 0.86 S^−1 | 81.3 µM | 99.6 | exhibited better drug resistance | exhibited better drug resistance | exhibited better drug resistance | exhibited apparent tolerance | exhibited better drug resistance |  |  |  |  |  |  | 
B2 | 97% |  | 0.15 S^−1 | 17.5 µM | 35.2 |  |  |  |  | exhibited better drug resistance | better drug resistance | the stem base was slightly enlarged, the whole plant growth was obviously inhibited, and the plant was in normal condition | the stem base was significantly enlarged, inhibition on the whole plant growth was further intensified, and the leaf color became lighter and lusterless | no apparent phytotoxicity reaction | exhibited better drug resistance | exhibited apparent resistance | exhibited apparent resistance

— patent US20250163449A1, “HERBICIDE-TOLERANT GENES AND METHOD FOR USING SAME” (QINGDAO KINGAGROOT CHEMICAL COMPOUND CO., LTD., priority 2022, published 2025)
